Source: US20050272636A1, “Treatment and diagnosis of a reproductive disorder by measuring or inhibiting interferon-gamma” (Adelaide Research & Innovation Pty Ltd., priority 2002, published 2005)

Legend:
[1] = target: T1, IFNγ (Mus musculus, UniProt P01580); assay: Penicillin inhibition of the IFNγ effect on GM-CSF production in uterine epithelial cells (Example 2); format: cell-based; details: DMEM +penicillin versus DMEM -penicillin
T1 construct: purchased R&D Systems, UK
T1 sequence (P01580 23-155): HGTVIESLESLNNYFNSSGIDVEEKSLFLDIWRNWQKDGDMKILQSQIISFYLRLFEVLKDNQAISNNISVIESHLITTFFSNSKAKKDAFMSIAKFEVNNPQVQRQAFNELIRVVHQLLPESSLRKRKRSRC
Protocol: Uterine Epithelial Cell Cultures. Uterine epithelial cells prepared as previously described (Robertson et al., Biol Reprod 46:1069-1079 (1992)) were pooled from 4-6 estrous C57B1/6 or C57B1/6×Balb/c F1 mice and plated in 1 ml culture wells (Nunc, Roskilde, Germany) at 1-2×10^5 cells per ml in 500 μl of Dulbecco's modified Eagles medium containing 10% FCS, […] streptomycin sulphate and […] benzyl penicillin (DMEM +penicillin). After 4 h incubation at 37° C. in 5% CO2 to allow cell adherence, a further 500 μl of DMEM +penicillin, or DMEM +penicillin plus recombinant mouse IFNγ (rIFNγ) and/or recombinant human TGFβ1 (rTGFβ), were added. In some experiments, penicillin-free DMEM (DMEM −penicillin) was used throughout. Culture supernatants were collected and replaced with fresh medium at 16 hours, then collected again 24 hours later, at which time GM-CSF content was determined and adherent cells were quantified as previously described (Robertson et al., Biol Reprod 46:1069-1079 (1992)). […]
GM-CSF bioassay: GM-CSF was assayed using the GM-CSF dependant cell line FD 5/12, essentially as previously described (Robertson et al., Biol Reprod 46:1069-1079 (1992)). Cell proliferation was determined by pulsing with 1 μCi of [^3H]-thymidine per well for the last 6 h of the assay. […] GM-CSF production is expressed as ng GM-CSF/10^5 cells/24 h. […]

[2] = system: IFNγ; assay: Inhibitors and antagonists counteracting the GM-CSF-inhibiting actions of IFNγ in uterine epithelial cells (Example 3); format: cell-based, mouse; details: for effect of TGFβ isoform on the inhibitory effect of IFNγ on GM-CSF synthesis: added in combination with IFNγ, dose-responsive, 5 ng/ml greater effect than 0.5 ng/ml
Protocol: Several inhibitors and antagonists of IFNγ were tested for their ability to counteract the GM-CSF-inhibiting actions of IFNγ in epithelial cells.
Uterine Epithelial Cell Cultures. Uterine epithelial cells prepared by pancreatin-trypsin digest as previously described (Robertson et al., (1992) Biol. Reprod. 46:1069-1079) were pooled from 4-6 estrous adult C57B1/6×CBA F1 female mice and plated in 1 ml culture wells (Nunc, Roskilde, Germany) at 1-2×10^5 cells per ml in 500 μl of RPMI containing 10% FCS and streptomycin (RPMI-FCS). Penicillin was omitted from culture media except where specified. After 4 h incubation at 37° C. in 5% CO2 to allow cell adherence, a further 500 μl of cytokines or antibodies in RPMI-FCS, or RPMI-FCS alone, were added. Cytokine treatments included recombinant mouse interferon-γ (rmIFNγ; R&D Systems), recombinant human transforming growth factor β1 (rhTGFβ1, R&D Systems), rhTGFβ2 (R&D Systems), rhTGFβ3 (OSI Pharmaceuticals). Antibody treatments included goat anti-mouse IFNγ receptor 1 (αIFNγR; R&D Systems AF1026) and hamster anti-mouse IFNγ (αIFNγ; R&D Systems MAB4851). Culture supernatants were collected and replaced with fresh complete RPMI-FCS alone at 16 hours, then collected again 24 hours later, at which time adherent cells were quantified as previously described (Robertson et al., (1992) Biol. Reprod. 46:1069-1079). The GM-CSF content of 24 h supernatants was determined by GM-CSF bioassay or immunoassay. All treatments were performed in duplicate or triplicate.
GM-CSF bioassay and immunoassay: Bioactive GM-CSF was assayed using the GM-CSF dependant cell line FD 5/12, essentially as previously described (Robertson et al., (1992) Biol. Reprod. 46:1069-1079). Cell proliferation was determined by the addition of 1 μCi of [^3H]-thymidine per well for the last 6 h of the assay. The minimal detectable amount of GM-CSF was […] The identity of the bioactivity in uterine epithelial cell cultures was confirmed using a goat polyclonal antibody to murine GM-CSF kindly provided by J. Schreurs (DNAX, Palo Alto, Calif.) as previously described (Robertson et al., (1992) Biol. Reprod. 46:1069-1079). GM-CSF immunoactivity was in some experiments measured by commercial mouse GM-CSF specific ELISA (R & D Systems) according to the manufacturer's instructions.

[3] = system: human cervical epithelial cells; assay: Effect of IFN-γ and TGFβ on GM-CSF synthesis in human cervical epithelial cells (Example 4); format: cell-based; details: 5.0 ng/ml recombinant human IFN-γ; 12 h; ELISA
Protocol: Human cervical epithelial cells were cultured using a modification of the technique described by Rheinwald et al., Cell 1975 3: 33143 (1975). Cervical biopsies were obtained from consenting women undergoing hysterectomy for non-malignant gynaecological indications. All the women were pre-menopausal, but no distinction was made regarding the stage of their menstrual cycle at the time of surgery. The cervical biopsies were placed in ice-cold Hank's balanced salt solution for transport to the laboratory, washed twice in antibiotic-containing medium, and incubated overnight at 4° C. in Dulbecco's modified Eagle's medium (DMEM) containing 5 U dispase (Boehringer Mannheim). Large sheets of keratinocytes were mechanically stripped from the biopsy using sterile forceps after a subsequent 1 h incubation at room temperature. Disaggregation into single cells was facilitated by incubation in DMEM/0.25% trypsin/0.05% collagenase for 30 minutes at 37° C., and repeated aspiration using a needle and syringe. […]
Supernatant was collected 12 hours later and assayed for GM-CSF activity using a commercial human GM-CSF specific ELISA (R & D Systems) according to the manufacturer's instructions. The GM-CSF content of post-treatment supernatants were normalised to the GM-CSF content of corresponding 12 h (baseline) supernatants and expressed as a percentage of control values.

[4] = system: mice; assay: Effect of IFN-γ treatment on pregnancy outcome in mice (Example 8); format: in vivo; details: for effect on the detrimental effects of IFN-γ on pregnancy outcome: implantation rate, viable versus resorbing fetuses, fetal and placental weight on day 18
Protocol: Mice are housed under specific pathogen-free conditions at the University of Adelaide Medical School Animal House on a 12:12 light-dark cycle, and administered food and water ad libitum. Adult Balb/c×C57B1/6 F1 females (7-10 weeks old) are synchronised into estrus by caging in close proximity to males. Estrus is identified on the basis of presence of cornified epithelial cells in vaginal smears prepared at 0900-1000 h daily and examined by phase contrast microscopy. On the day of estrus (day 0) females are caged with proven fertile Balb/k males for natural mating. The day of sighting a vaginal plug is nominated day 1 of pregnancy.
Mice are randomly allocated to one of four groups and treated as follows: Group 1 (100 ng IFN-γ) mice receive three intraperitoneal injections of […] recombinant mouse IFN-γ (rmIFN-γ, R&D Systems) in 200 μl PBS containing 1% bovine serum albumin (PBS-BSA) at 1700 h on day 0, at 1000 h on day 1 and 1700hon day 1.
Group 2 (250 ng IFN-γ) receive three injections of 250 ng rmIFN-γ according to the same time schedule.
Group 3 (control) receive three injections of PBS-BSA instead of IFN-γ according to the same time schedule.
Group 4 (comparison) Mice are mated but otherwise remain untreated.
Twenty mice per group are used to ensure statistical significance in treatment effects.
Alternatively, a transcervical delivery route for IFN-γ is used. Treatments are delivered directly into the uterine lumen with the aid of a tom-cat catheter (Sovereign, St Louis Mo.). In mated animals this requires removal of vaginal plugs using forceps to allow transcervical access. Mice are randomly allocated to one of four groups and treated as follows: the first group (100 ng IFN-γ) mice receive three transcervical injections of […] recombinant mouse IFN-γ (rmIFN-γ, R&D Systems) in 200 μl PBS containing 1% bovine serum albumin (PBS-BSA) at 1700 h on day 0, at 1000 h on day 1 and 1700 h on day 1. The second group (25 ng IFN-γ) receive three injections of 25 ng rmIFN-γ according to the same time schedule. The third group (control) receive three injections of PBS-BSA instead of IFN-γ according to the same time schedule. For comparison, a fourth group of mice are mated but otherwise would remain untreated. Twenty mice per group are used to ensure statistical significance in treatment effects.
Pregnant females are sacrificed by cervical dislocation at 1000 h -1200 h on day 18 of gestation. The intact uterus of each female is removed and total, viable and resorbing implantation sites counted. Each viable fetus is dissected from the amniotic sac and umbilical cord, and fetuses and placentae weighed. Placental tissues are fixed in paraformaldehyde and processed for histological staining of paraffin sections, using Masson's trichrome stain.

`CC1(C)S[C@@H]2[C@H](NC(=O)Cc3ccccc3)C(=O)N2[C@H]1C(=O)O` [penicillin, benzyl penicillin, reference compound] was tested, and the “ability of penicillin to inhibit the effect of IFNγ on GM-CSF production” value [1] was “inhibit the effect of IFNγ”, the “IFNγ concentration required to inhibit GM-CSF synthesis after addition of penicillin” value ([2]; penicillin at 60 μg/ml) was at least 2.5 ng/mL and the “effect of penicillin on the GM-CSF inhibiting activity of IFNγ” value ([2]; penicillin at 60 μg/ml) was “antagonised the GM-CSF inhibiting activity of IFNγ”.

In the case of “IFN-γ: recombinant human IFN-γ (R & D Systems), used on human cervical epithelial cells in Example 4”, the “effect of IFN-γ on GM-CSF synthesis” value [3] is reported as “inhibited GM-CSF synthesis”.

B1: rhTGFβ2: recombinant human TGFβ2 (R&D Systems) (protein, UniProt P61812 303-414, looked up)
Transforming growth factor …: ALDAAYCFRNVQDNCCLRPLYIDFKRDLGWKWIHEPKGYNANFCAGACPYLWSSDTQHSRVLSLYNTINPEASASPCCVSQDLEPLTILYYIGKTPKIEQLSNMIVKSCKCS
modifications: Transforming growth factor beta-2
With B1 the “effect of TGFβ isoform on the inhibitory effect of IFNγ on GM-CSF synthesis” value [2] was “counteracted the inhibitory effect” and the “effect on the detrimental effects of IFN-γ on pregnancy outcome” value [4] was “reverses the detrimental effects of IFN-γ”.

B2: rhTGFβ3: recombinant human TGFβ3 (OSI Pharmaceuticals) (protein, UniProt P10600 301-412, looked up)
Transforming growth factor …: ALDTNYCFRNLEENCCVRPLYIDFRQDLGWKWVHEPKGYYANFCSGPCPYLRSADTTHSTVLGLYNTLNPEASASPCCVPQDLEPLTILYYVGRTPKVEQLSNMVVKSCKCS
modifications: Transforming growth factor beta-3
B2 was tested, and the “effect of TGFβ isoform on the inhibitory effect of IFNγ on GM-CSF synthesis” value [2] was “counteracted the inhibitory effect” and the “effect on the detrimental effects of IFN-γ on pregnancy outcome” value [4] was “reverses the detrimental effects of IFN-γ”.

B3: IFN-γ: recombinant human IFN-γ (R & D Systems), used on human cervical epithelial cells in Example 4 (protein, UniProt P01579 24-161, looked up)
Interferon gamma: QDPYVKEAENLKKYFNAGHSDVADNGTLFLGILKNWKEESDRKIMQSQIVSFYFKLFKNFKDDQSIQKSVETIKEDMNVKFFNSNKKKRDDFEKLTNYSVTDLNVQRKAIHELIQVMAELSPAAKTGKRKRSQMLFRG
B3 was tested, and the “effect of IFN-γ on pregnancy outcome” value ([4]; peritoneal cavity or uterine lumen, day of estrus and day 1, assessed day 18) was “impairs pregnancy outcome”.
